The values below are quoted from earlier work in publication PMC7390727.

Broadly, the Kd is the equilibrium constant for the complex coming apart.

Like-named read-outs stand apart in the source and are kept apart here.

For series [1], the target named is chemoreceptor C-terminal pentapeptide (Salmonella typhimurium).
For series [2] the target is unchanged. The source holds these as a separate data set.

With CheB (from UniProt P04042), the Kd in series [1] is 160 µM. Turning to CheR (from UniProt P07801), the dissociation constant Kd in series [2] was 2000 nM.
